2 molecules from patent US20190352420A1 (Boehringer Ingelheim, published 2019) can be followed below.

In test [1] the target is T1, cell-bound CD73 (human, UniProt P21589 27-549).
T1 sequence (looked up): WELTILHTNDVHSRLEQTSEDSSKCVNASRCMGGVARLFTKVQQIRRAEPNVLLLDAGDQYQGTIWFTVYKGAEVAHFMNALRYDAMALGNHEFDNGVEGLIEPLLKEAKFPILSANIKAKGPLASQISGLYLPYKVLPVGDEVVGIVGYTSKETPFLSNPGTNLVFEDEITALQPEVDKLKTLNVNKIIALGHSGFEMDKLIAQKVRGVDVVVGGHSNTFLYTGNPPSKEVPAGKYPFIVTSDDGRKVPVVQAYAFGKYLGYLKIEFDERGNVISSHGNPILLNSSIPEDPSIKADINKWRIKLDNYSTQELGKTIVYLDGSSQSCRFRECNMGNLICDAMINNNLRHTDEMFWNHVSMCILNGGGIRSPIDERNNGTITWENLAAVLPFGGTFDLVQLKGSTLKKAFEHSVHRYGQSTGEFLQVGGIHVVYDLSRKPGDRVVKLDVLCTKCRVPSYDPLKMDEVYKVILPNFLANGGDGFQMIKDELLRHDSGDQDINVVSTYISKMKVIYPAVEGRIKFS
As to the kind of experiment: cell-based or functional assay.

Test [2] deals with T1, cell-bound CD73. As to the kind of experiment: cell-based or functional assay. This is another data set of the same source.
The target of a further test is T2, human CD73-His (human, UniProt P21589 27-549).
T2 construct: extracellular domain; The SPR analyte is only called 'human CD73-His' (non-covalent dimeric antigen); also called HuCD73 His tagged; HuCD73his20170303
T2 sequence: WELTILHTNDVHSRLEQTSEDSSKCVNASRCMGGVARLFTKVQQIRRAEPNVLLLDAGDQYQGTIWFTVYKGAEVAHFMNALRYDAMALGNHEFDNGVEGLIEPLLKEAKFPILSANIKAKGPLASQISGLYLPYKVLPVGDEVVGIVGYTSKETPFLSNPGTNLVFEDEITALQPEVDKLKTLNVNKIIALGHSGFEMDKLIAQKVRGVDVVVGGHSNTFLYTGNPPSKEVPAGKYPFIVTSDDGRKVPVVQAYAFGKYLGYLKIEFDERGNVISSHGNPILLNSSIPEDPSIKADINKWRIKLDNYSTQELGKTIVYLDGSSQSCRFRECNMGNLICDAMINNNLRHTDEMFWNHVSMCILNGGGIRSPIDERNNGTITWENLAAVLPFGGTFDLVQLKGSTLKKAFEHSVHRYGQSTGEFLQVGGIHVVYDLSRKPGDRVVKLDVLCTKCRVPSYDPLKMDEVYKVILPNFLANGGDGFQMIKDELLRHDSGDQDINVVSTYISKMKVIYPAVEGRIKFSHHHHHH
In words: SPR (ProteOn XPR36), antibody captured on Protein A/G, dimeric human CD73-His as analyte, avidity format, 1:1 Langmuir fit. As to the method:
For the avidity format, the experiment was performed on a Bio-Rad ProteOn XPR36 instrument. Antibodies were captured via Protein A/G and the non-covalent dimeric antigens were flowed over the captured surface. The running buffer for this experiment and all dilutions were prepared in PBS-T-EDTA. The GLM sensor chip was normalized and pre-conditioned as per the manufacturer's recommendations. The sensor chip was activated with an equal mixture of EDC/s-NHS in the horizontal direction for 300 s at a flow rate of 30 μL/min and immobilized with recombinant Protein A/G (50 μg/ml in 10 mM acetate pH 4.5) in the horizontal direction for 300 s at a flow rate of 30 μL/min resulting in about 5000 RU of Protein A/G on the surface. The sensor chip was deactivated with 1M ethanolamine-HCl in the horizontal direction for 300 s at a flow rate of 30 μL/min. The sensor chip was regenerated with 18 s of 0.85% phosphoric acid at a flow rate of 100 μL/min 2 times horizontally and 2 times vertically.
About 300 RU of antibody was captured on the Protein A/G surface vertically for 60 s at a flow rate of 30 μL/min. The capture surface was stabilized by injecting PBS-T-EDTA for 60 s at a flowrate of 100 μL/min horizontally. The analyte (human CD73-His) was injected horizontally over the captured antibody for 600 s at a flow rate of 30 μL/min with a dissociation of 1200 s. The concentrations of human CD73-His were 0 nM, 3.125 nM, 6.25 nM, 12.5 nM, 25 nM and 50 nM. The surface was regenerated by injecting 0.85% phosphoric acid for 18 s at a flow rate of 100 μL/min one time horizontally and one time vertically.
The interspot (interactions with sensor surface) and blank (PBS-T-EDTA or 0 nM analyte) were subtracted from the raw data.

The target in test [3] is T1, cell-bound CD73. In words: cell-based or functional assay. This is another data set of the same source.
Test [4] addresses T1, cell-bound CD73. As to the kind of experiment: cell-based or functional assay. The source holds these as a separate data set.
The target of test [5] is T3, recombinant human CD73 protein (human, UniProt P21589 27-549, limits assumed).
T3 sequence (looked up): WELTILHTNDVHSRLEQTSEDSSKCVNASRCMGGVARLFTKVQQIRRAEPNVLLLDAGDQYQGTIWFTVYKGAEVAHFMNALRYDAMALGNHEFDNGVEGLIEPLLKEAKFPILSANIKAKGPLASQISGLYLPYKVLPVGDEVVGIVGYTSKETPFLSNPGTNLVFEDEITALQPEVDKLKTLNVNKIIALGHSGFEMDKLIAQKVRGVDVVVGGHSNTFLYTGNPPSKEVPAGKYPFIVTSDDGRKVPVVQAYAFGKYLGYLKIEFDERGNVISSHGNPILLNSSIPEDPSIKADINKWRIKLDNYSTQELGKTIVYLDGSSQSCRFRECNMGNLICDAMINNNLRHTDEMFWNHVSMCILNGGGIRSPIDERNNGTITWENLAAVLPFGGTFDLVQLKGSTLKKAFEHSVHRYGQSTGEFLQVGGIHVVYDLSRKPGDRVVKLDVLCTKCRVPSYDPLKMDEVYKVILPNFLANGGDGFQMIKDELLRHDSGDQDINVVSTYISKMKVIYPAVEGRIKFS
In words: cell-based or functional assay.

For a further test, the target named is T4, non-cell-bound CD73 (human, UniProt P21589 27-549, limits assumed).
T4 sequence (looked up): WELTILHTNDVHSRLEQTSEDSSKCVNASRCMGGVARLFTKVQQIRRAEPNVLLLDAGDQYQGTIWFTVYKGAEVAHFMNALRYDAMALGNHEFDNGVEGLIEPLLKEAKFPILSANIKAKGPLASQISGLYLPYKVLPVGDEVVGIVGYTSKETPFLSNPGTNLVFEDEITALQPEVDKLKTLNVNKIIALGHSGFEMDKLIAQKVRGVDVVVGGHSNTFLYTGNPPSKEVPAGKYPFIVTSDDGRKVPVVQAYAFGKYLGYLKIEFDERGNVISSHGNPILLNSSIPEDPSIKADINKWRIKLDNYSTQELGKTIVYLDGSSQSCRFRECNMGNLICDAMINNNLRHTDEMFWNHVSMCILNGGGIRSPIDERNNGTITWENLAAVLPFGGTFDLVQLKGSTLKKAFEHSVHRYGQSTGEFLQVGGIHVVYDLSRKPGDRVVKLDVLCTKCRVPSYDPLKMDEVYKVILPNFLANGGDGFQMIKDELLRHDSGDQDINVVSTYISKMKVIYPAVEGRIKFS
As to the kind of experiment: cell-based or functional assay.

Test [6] addresses T1, cell-bound CD73. As to the kind of experiment: cell-based or functional assay. The source holds these as a separate data set.
In the next test the target is T5, mouse CD73 (mouse, UniProt Q61503 29-551, limits assumed).
T5 construct: also called murine CD73
T5 sequence (looked up): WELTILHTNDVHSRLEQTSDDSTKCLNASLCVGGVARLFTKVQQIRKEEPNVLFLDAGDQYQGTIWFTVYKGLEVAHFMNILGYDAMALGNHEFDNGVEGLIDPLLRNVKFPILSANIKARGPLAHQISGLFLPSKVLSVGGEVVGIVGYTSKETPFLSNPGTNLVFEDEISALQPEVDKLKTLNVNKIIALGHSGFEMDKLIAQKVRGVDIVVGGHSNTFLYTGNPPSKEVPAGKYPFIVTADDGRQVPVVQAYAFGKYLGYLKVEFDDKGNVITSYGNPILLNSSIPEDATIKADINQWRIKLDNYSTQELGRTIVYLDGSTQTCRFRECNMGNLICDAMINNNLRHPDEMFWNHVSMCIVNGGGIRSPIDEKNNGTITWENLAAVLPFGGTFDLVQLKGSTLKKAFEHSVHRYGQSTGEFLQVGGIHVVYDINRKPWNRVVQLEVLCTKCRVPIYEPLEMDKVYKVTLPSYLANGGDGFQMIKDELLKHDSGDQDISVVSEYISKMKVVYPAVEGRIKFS
As to the kind of experiment: SPR, mouse CD73 compared with human CD73 (reference). (In SPR one partner is held on a chip, and binding of the other changes the refractive index at the surface.)

B1: C5 (antibody, human IgG1, kappa, L234A L235A, V domains shown)
VH: QVQLVQSGAEVKKPGDSVKVSCKASGYTFTTYWMHWVRQAPGQGLEWMGAIYPGNSDTTYNQKFKGKVTMTRDTSTSTVYMKLSSLRSEDTAVYYCARLLDYAMDYWGQGTLVTVSS
VL: DIQMTQSPSSLSASVGDRVTITCRASQDIRSYLNWHQQKPGKAPKLLIWYTSRLHSGVPSRFSGSGSGTDYTLTISSLEPEDFATYFCQQGETLPWTFGQGTKLEIKR
notes: Humanized monoclonal antibody; also called anti-CD73 antibody C5
Consider B1, for which, in the test with cell-bound CD73 [1], the “IFNγ release [fold change over control], Donor A, 1 nM antibody” value came out at 24.5 fold; the “IFNγ release [fold change over control], Donor B, 1 nM antibody” value came to 11.3 fold; the “IFNγ release [fold change over control], Donor C, 1 nM antibody” value stood at 59.3 fold; the “IFNγ release [fold change over control], Donor D, 1 nM antibody” value amounted to 22.9 fold. In the test with cell-bound CD73 [1], the “IFNγ release [fold change over control], Donor E, 1 nM antibody” value was found to be 12.4 fold and the “IFNγ release [fold change over control], Donor F, 1 nM antibody” value is 5.8 fold. In addition, the “Max. adenosine inhibition [%] in Colo201 cells” value in the test with cell-bound CD73 [2] was found to be 87%. The Kd in the test with human CD73-His was 0.049 nM. In the test with cell-bound CD73 [3], the “% of max. adenosine inhibition, washed Colo-201 cells” value was determined as 82%. In the test with cell-bound CD73 [4], the “CD8 T cell proliferation [% of control], Donor A, 1 nM antibody” value was 103%; the “CD8 T cell proliferation [% of control], Donor B, 1 nM antibody” value is 80.3%; the “CD8 T cell proliferation [% of control], Donor C, 1 nM antibody” value was determined as 101%; the “CD8 T cell proliferation [% of control], Donor D, 1 nM antibody” value came out at 99.3%. For the same molecule, in the test with cell-bound CD73 [4], the “CD8 T cell proliferation [% of control], Donor E, 1 nM antibody” value was 100% and the “CD8 T cell proliferation [% of control], Donor F, 1 nM antibody” value was 86%. Also, the “IC90 of inhibition of CD73 enzymatic function (luciferase-based assay)” value in [5] is 0.29 nM. In addition, the “% of max. adenosine inhibition, Colo-201 culture supernatant” value with non-cell-bound CD73 came to 80%. Further, in the test with cell-bound CD73 [6], the “CD73 surface reduction [%] on Colo201 cells, 24 h, flow cytometry” value was 19%. Also, the “fold higher binding to human CD73 than to mouse CD73” value with mouse CD73 was determined as 163 fold.

B2: C6 (antibody, human IgG1, kappa, L234A L235A, V domains shown)
VH: QVQLVQSGAEVKKPGDSVKVSCKASGYTFTTYWMHWVRQAPGQGLEWMGAIYPGNSDTTYNQKFKGKVTMTRDTSTSTVYMKLSSLRSEDTAVYYCARLLDYAMDYWGQGTLVTVSS
VL: DIQMTQSPSSLSASVGDRVTITCRASQDIRNYLNWHQQKPGKAPKLLIWYTSRLHSGVPSRFSGSGSGTDYTLTISSLQPEDFATYFCQQGNTLPWTFGQGTKLEIKR
notes: Humanized monoclonal antibody; also called anti-CD73 antibody C6
In the case of B2, in the test with cell-bound CD73 [1], the “IFNγ release [fold change over control], Donor A, 1 nM antibody” value was determined as 24.3 fold; the “IFNγ release [fold change over control], Donor B, 1 nM antibody” value stood at 12.9 fold; the “IFNγ release [fold change over control], Donor C, 1 nM antibody” value was determined as 55.5 fold; the “IFNγ release [fold change over control], Donor D, 1 nM antibody” value is 25.8 fold. Besides, in the test with cell-bound CD73 [1], the “IFNγ release [fold change over control], Donor E, 1 nM antibody” value turned out to be 14 fold and the “IFNγ release [fold change over control], Donor F, 1 nM antibody” value was found to be 10.3 fold. Moreover, the “Max. adenosine inhibition [%] in Colo201 cells” value in the test with cell-bound CD73 [2] came out at 88%. This molecule returned a Kd in the test with human CD73-His of 0.096 nM. In the test with cell-bound CD73 [3], the “% of max. adenosine inhibition, washed Colo-201 cells” value amounted to 81%. Further, in the test with cell-bound CD73 [4], the “CD8 T cell proliferation [% of control], Donor A, 1 nM antibody” value was 102%; the “CD8 T cell proliferation [% of control], Donor B, 1 nM antibody” value came to 65.4%; the “CD8 T cell proliferation [% of control], Donor C, 1 nM antibody” value was determined as 88.3%; the “CD8 T cell proliferation [% of control], Donor D, 1 nM antibody” value was found to be 99.6%. In the test with cell-bound CD73 [4], the “CD8 T cell proliferation [% of control], Donor E, 1 nM antibody” value was 100% and the “CD8 T cell proliferation [% of control], Donor F, 1 nM antibody” value was 91.1%. The “IC90 of inhibition of CD73 enzymatic function (luciferase-based assay)” value in test [5] is 0.24 nM. In the test with non-cell-bound CD73, the “% of max. adenosine inhibition, Colo-201 culture supernatant” value is 78%. In the test with cell-bound CD73 [6], the “CD73 surface reduction [%] on Colo201 cells, 24 h, flow cytometry” value amounted to 19%. The “fold higher binding to human CD73 than to mouse CD73” value with mouse CD73 was found to be 58 fold.
